Here are results for 13 molecules from patent US20110293603A1 (Ablynx, published 2011).

The target of test [1] is T1, extracellular part of recombinant human Lox-1 fused to polyhistidine tag (R&D Systems, cat nr. 1798-LX) (human, UniProt P78380 61-273). Description: ELISA, rhLox-1 coated at 2 ug/ml, nanobody 1-1000 nM, detection with anti-Myc 9E10. In general terms: An ELISA detects its analyte on a solid surface through an enzyme-linked reagent.
For test [2], the target named is T2, extracellular part of recombinant human SR-A1 fused to polyhistidine tag (R&D Systems Cat No 2708-MS) (human, UniProt P21757 77-451).
T2 construct: range 77-451; Bought protein; that entry was therefore not used; also called rhSRA-1
T2 sequence: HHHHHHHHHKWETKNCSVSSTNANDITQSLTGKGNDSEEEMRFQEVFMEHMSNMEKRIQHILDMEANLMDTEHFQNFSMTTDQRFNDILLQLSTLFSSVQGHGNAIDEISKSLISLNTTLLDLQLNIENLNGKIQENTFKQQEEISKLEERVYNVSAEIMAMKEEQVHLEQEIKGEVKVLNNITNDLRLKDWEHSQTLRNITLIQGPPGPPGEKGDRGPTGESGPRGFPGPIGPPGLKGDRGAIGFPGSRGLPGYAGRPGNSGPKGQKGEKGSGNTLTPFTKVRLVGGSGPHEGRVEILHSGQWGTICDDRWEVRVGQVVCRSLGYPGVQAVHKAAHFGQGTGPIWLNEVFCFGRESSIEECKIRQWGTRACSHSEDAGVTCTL
Description: ELISA, rhSRA-1 coated at 2 ug/ml, nanobody 1-1000 nM, detection with anti-Myc 9E10.

Test [3] deals with T3, extracellular part of recombinant human RAGE fused to human Fc (R&D Systems Cat No 1145-RG) (human, UniProt Q15109 23-342).
T3 construct: extracellular domain; Bought protein; they look like the limits of the IgG1 Fc part; also called rhRG; 1145-RAGE; not shown: human Fc region of human IgG1, at the C-terminus
In words: immunoprecipitation on Talon beads, SDS-PAGE and blot with mouse anti-RAGE and mouse anti-myc. The procedure: In order to test the binding of anti-RAGE clones further an Immunoprecipitation experiment was performed. In short, 100 ul of Talon slurry (50 ul beads) was washed carefully with lysis buffer (RIPA without EDTA) (20 mM tris pH7.4; 150 mM NaCl; 0.5% TritonX100; 0.1% SDS). 10 ug of VHHs was added to the beads in 200 ul of lysis buffer and incubate for 30 min hoh. The beads were washed once with lysis buffer and 1 ug of rhRG was added to the beads (100 ul) and incubated for 1 hour. The beads were spinned down and supernatant was removed. The beads were washed twice. Subsequently the beads were boiled for 5 min in sample buffer and the proteins were separated on a SDS PAGE by gel electrophoresis (FIG. 1).
The high molecular weight part was detected with mouse-anti-RAGE antibody (R&D systems) and the lower part was detected with mouse anti-myc.

For test [4], the target named is T2, extracellular part of recombinant human …. Description: ELISA, rhSRA-1 coated at 2 ug/ml, nanobody detected with anti-Myc 9E10.
Test [5] concerns the target T1, extracellular part of recombinant human …. In words: ELISA, rhLox-1 coated at 2 ug/ml, nanobody detected with anti-Myc 9E10.

T3 sequence (Q15109 23-342): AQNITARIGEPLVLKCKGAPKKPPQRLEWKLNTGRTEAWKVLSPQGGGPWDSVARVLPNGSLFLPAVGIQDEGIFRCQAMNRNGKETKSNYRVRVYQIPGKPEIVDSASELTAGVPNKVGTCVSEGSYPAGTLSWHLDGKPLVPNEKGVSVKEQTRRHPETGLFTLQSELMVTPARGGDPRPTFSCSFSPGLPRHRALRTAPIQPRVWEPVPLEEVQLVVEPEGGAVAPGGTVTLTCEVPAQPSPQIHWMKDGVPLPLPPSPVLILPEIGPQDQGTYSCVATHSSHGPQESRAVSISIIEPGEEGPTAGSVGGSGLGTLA

B1: Nanobody 98B9 (VHH)
VHH: EVQLVESGGGLVQAGGSLRLSCAASIGTFSAYHMGWFRQAPGKERELVAAISWSVSSTYYADSVKGRFTISRDNAKRTVSLQMDSLKPEDTAVYYCAARSGERYDYYKAQYEYWGQGTQVTVSS
notes: Myc-tagged (detected with anti-Myc 9E10)
As for B1, the binding result in test [1] is “binds”.

B2: Nanobody 98A10 (VHH)
VHH: EVQLVESGGGLVQPGGSLRLSCLPSTSTSSLRTVGWYRQGPGKQRDLVAIMSAGTTRYADSVKGRFTISLDDAKNTVYLQMNSLKPEDTAVYICNGRPVFSNVDYWGQGTQVTVSS
notes: as for B1
On to B2, for which the binding result in test [1] is listed as “binds”.

B3: Nanobody 105G11 (VHH)
VHH: EVQLVESGGGLVQAGGSLRLSCAASGRTFSRYAMAWFRHAPGKDREFVAAVSQSGLLTFYADSVKGRFTISRDNAKNTVYLQMNSLKPEDTAVYDCAADSRFPLVVPVAYENWGQGTQVTVSS
notes: as for B1
In the case of B3, the binding result in test [2] is reported as “binds”.

B4: Nanobody 99D3 (VHH)
VHH: EVQLVESGGGLVQPGGSLRLSCAASGFTLGNYAIGWFRQAPGKEREGVSCVDRDGGSTYYLDSVTGRFTTSRDDAENTVYLQMNSLIPDDTAVYYCATRLYGCSGYGRDYADWGQGTQVTVSS
notes: as for B1
B4: in test [3], the binding result is on record as “no binding”.

B5: Nanobody 98D8 (VHH)
VHH: EVQLVESGGGLVQPGGSLRLSCAASGSIFTINAMAWYRQAPGKQRELVAHLTNSGRTGYADSVKGRFTISSDNAKNTVYLQMNSLKPEDTAVYYCNRLGLHWSWGQGTQVTVSS
notes: as for B1
Consider B5, for which the binding result in test [1] is on record as “binds”.

B6: Nanobody 105F7 (VHH)
VHH: EVQLVESGGGLVQAGGSLRLSCAASGRTFSNYAMGWFRQAPGKEREFVAAITWSGSSTYYADSVKGRFTISRDNAKNTVYLQMNSLKPEDTAVYYCAAAQRGRYYYLDRNVEYDYWGQGTQVTVSS
notes: as for B1
Take B6: the binding result in test [1] is on record as “binds”.

B7: Nanobody 105A8 (VHH)
VHH: EVQLVESGGNLVQAGGSLRLSCAASGFTFDDYVIGWFRQAPGKEREGVSCISSVEGSTYYADSVKGRFTISGDNAKNTVYLQMNSLKPEDTAVYYCAAGTWLDCSGYGSYDMDYWGKGTLVTVSS
notes: as for B1
Turning to B7, the binding result in test [1] is given as “binds”.

B8: Nanobody 49C5 (negative control, irrelevant nanobody against alphaFcgRI) (VHH)
VHH: EVQLVESGGGLVQAGGSLGLSCVASGRTFVSGGMGWFRQAPGKEREFVASIVWIGGRTYYADSVKGRFTISGDNAKSTVTLQMNSLKPEDTATYYCADGDLATGTYDYWGQGTQVTVSS
notes: Negative control; generation published in WO2008/074867; Myc-tagged (detected with 9E10)
Consider B8, for which the binding result in test [4] and in test [5] was “no binding (tested: 1-1000 nM)” throughout.

B9: Nanobody 105B8 (VHH)
VHH: EVQLVESGGGLVQAGGSLRLSCAASGFTFDDYVIGWFRQAPGKEREGVSCISSSEGSTYYAESVKGRFTISSDNAKNTVYLQMNSLKPEDTAVYYCAASTWLDFVHGNEYDYRGQGTQVTVSS
notes: as for B1
On to B9, for which the binding result in test [1] was “binds”.

B10: Nanobody 98E9 (VHH)
VHH: EVQLVESGGGLVQPGGSLRLSCAAYGSFFSIGTMGWYRQPPGNQRELVAVTYGLGSTNYAESVKGRFTISRDNAKNTVSLQMNSLKPEDTAVYYCYAEIDTDPRSGEWDYWGQGTQVTVSS
notes: as for B1
As to B10, the binding result in test [1] is “binds”.

B11: Nanobody 99C8 (VHH)
VHH: EVQLVESGGGLVQPGGSLRLSCAASGSIGRFVAMGWYRQAPGKQRELVATITSITSGGRTNYADSVKGRFTISRDNAKNTVYLQMNSLKPEDTAVYYCNVVPYVNDYWGQGTQVTVSS
notes: Myc-tagged (detected with anti-Myc 9E10); also called 99C8 α SR-A1
Regarding B11, in test [2], the binding result is “binds”.

B12: Nanobody 98F12 (VHH)
VHH: EVQLVESGGGLVQAGGSLRLSCAASGFTFDDYAIGWFRQAPGKEREGVSCVSRDGGSTYYLDSVKGRFTISSDNAKNTVYLQMNSLKPEDAAVYYCAASRYDCSKYLIDYNYRGQGTQVTVSS
notes: as for B1
For the molecule B12, the binding result in test [1] was “binds”.

B13: Nanobody 99C9 (VHH)
VHH: EVQLVESGGGLVQVGGSLRLSCAASGISIRTHAMGWYRQAPGKQRELVATITSVTSGGSLNYADSVKGRFTISRDNAKNTVYLQMNSLKPEDTAVYYCKLLGFDYRGQGTQVTVSS
notes: as for B1
With B13, the binding result in test [2] was “binds”.
